Reference: US20030045470A1

Target: Gal4 DBD-COUP-TF fusion protein (yeast) (UniProt P04386)
Test: cell-based or functional assay

PGC-1 mediated activation of mutant PEPCK promoter-luciferase constructs (% of that achieved by HNF-4α): 20 to 30
Substance: PGC-1 (expressed from pCMV-PGC-1 in transfected cells) (from UniProt O70343 1-797)
